{
  "source": "paper doi:10.1101/2024.10.05.616753",
  "molecular_target": "T1, recombinant human C-reactive protein (human), P02741",
  "T1 chain": "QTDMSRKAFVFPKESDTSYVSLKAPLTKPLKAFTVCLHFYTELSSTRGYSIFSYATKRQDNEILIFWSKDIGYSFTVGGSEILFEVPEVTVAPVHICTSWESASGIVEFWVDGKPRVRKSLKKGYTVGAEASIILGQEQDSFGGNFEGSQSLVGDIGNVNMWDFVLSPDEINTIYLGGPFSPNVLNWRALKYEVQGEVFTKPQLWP",
  "test": "cryo-EM structure",
  "conditions": "remark: other sources report otherwise",
  "data": [
    {"binder": "recombinant human C-reactive protein, P02741-1 19-224 (natural protein) QTDMSRKAFVFPKESDTSYVSLKAPLTKPLKAFTVCLHFYTELSSTRGYSIFSYATKRQDNEILIFWSKDIGYSFTVGGSEILFEVPEVTVAPVHICTSWESASGIVEFWVDGKPRVRKSLKKGYTVGAEASIILGQEQDSFGGNFEGSQSLVGDIGNVNMWDFVLSPDEINTIYLGGPFSPNVLNWRALKYEVQGEVFTKPQLWP", "values": [
      {"measurement": "stoichiometry N", "result": 5}
    ]}
  ]
}
